Source: patent US20190106460A1, “BINDING INHIBITORS OF THE BETA. TRANSDUCIN REPEAT-CONTAINING PROTEIN” (priority 2011, published 2019)
pIC50, pKd: −log10 of the molar value. Starred links: 1 amine or outer side, 2 acyl side, 3 side chain; linkers in the order of their positions; H or OH if unused. Suc = O=C(CCC(=O)[*:2])[*:1]

Tests used:
[1] = biological target: βTrCP (tag cleaved and complexed with Skp1) (UniProt Q9Y297); test: FP competition vs fluorescein-IκB peptide
[2] = biological target: βTrCP (tag cleaved and complexed with Skp1) (UniProt Q9Y297); test: FP competition vs fluorescein-IκB peptide; remark: listed apart in the source
[3] = biological target: HisβTrCP/Skp1 and HisβTrCP/GSTSkp1 (immobilised on NTA Biacore chip) (UniProt Q9Y297); test: SPR, Biacore T200, βTrCP/Skp1 immobilised
HisβTrCP/Skp1 and HisβTrCP/GSTSkp1 (immobilised on NTA Biacore chip), sequence (Q9Y297 175-605, chain 1 of 2): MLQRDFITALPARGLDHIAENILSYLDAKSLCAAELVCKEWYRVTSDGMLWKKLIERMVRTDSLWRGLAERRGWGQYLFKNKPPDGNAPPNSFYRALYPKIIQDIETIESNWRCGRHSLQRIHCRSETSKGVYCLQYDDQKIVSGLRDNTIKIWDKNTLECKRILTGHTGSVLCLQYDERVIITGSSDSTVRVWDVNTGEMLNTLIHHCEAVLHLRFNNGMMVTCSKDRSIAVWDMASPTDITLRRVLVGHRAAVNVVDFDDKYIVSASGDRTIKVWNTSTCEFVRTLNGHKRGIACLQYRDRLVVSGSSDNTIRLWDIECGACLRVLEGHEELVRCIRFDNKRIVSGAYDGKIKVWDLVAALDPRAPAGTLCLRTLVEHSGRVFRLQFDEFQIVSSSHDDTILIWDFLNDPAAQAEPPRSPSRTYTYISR
HisβTrCP/Skp1 and HisβTrCP/GSTSkp1 (immobilised on NTA Biacore chip), sequence (P63208 whole entry, chain 2 of 2, further chain): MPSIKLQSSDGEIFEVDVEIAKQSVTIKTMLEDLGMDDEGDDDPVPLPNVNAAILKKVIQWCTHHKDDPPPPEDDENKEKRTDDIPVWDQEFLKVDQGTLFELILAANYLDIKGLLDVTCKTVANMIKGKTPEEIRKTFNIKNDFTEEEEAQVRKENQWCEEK

[4] = biological target: βTrCP (tag cleaved and complexed with Skp1) (UniProt Q9Y297); test: FP competition, 10 nM fluorescein-IκB peptide on βTrCP/Skp1
[5] = biological target: βTrCP (tag cleaved and complexed with Skp1) (UniProt Q9Y297); test: FP competition vs fluorescein-IκB peptide; Table 7: peptide selected from the arrays of Tables 5 and 6, re-synthesised; FP assay

βTrCP (tag cleaved and complexed with Skp1), sequence (Q9Y297 175-605, chain 1 of 2): as the sequence (Q9Y297 175-605, chain 1 of 2) above
βTrCP (tag cleaved and complexed with Skp1), sequence (P63208 whole entry, chain 2 of 2, further chain): as the sequence (P63208 whole entry, chain 2 of 2, further chain) above

pIC50 [1]	pKd [3]	Substance	also measured
5.44		Suc-EG-3Pal-1Nal-E-NH2 (peptide)	
5.48	5.36	Suc-EGF(2F)Y(Me)E-NH2 (peptide)	pIC50 [2]: 5.49
4.56		Suc-EA-F(3F)-F(4NO2)-E-NH2 (peptide)	
4.22		Fum-EG-F(3F)-F(4NO2)-E-NH2 (peptide)	
6.28	5.34	Suc-EGF(3F)F(4NO2)E-NH2 (peptide)	pIC50 [2]: 6.28
		E-pS-GIFE-NH2 (peptide)	pIC50 [4]: 4.46
		D-pS-GIFE-NH2 (peptide)	pIC50 [4]: 5.91
5.66	5.83	Mal-EGF(3F)F(4NO2)E-NH2 (peptide)	
5.88	5.71	Suc-EGF(4NO2)1NalE-NH2 (peptide)	
6.80	6.49	Suc-EGF(3F)1NalE-NH2 (peptide)	
		Suc-EG-F(3F)-3Pal-NH2 (peptide)	pIC50 [2]: 4.15
7.02	6.34	Suc-EGF(3F)WE-NH2 (peptide)	
5.10		Suc-AG-F(3F)-F(4NO2)-E-NH2 (peptide)	
4.97		Suc-QGYFE-NH2	
5.92	6.29	Suc-EGF(4F)F(4NO2)E-NH2 (peptide)	pIC50 [2]: 5.92
5.80		(MeO)Suc-EG-F(3F)-1Nal-E-NH2 (peptide)	

pIC50 [1]	pKd [3]	Substance	also measured
5.31	5.10	Suc-EGF(2F)F(4NO2)E-NH2 (peptide)	pIC50 [2]: 5.31
		EAFFE-NH2 (peptide)	pIC50 [5]: 4.55
4.82		Suc-EGI-1Nal-E-NH2 (peptide)	
5.68	4.75	Suc-EGYF(4NO2)E-NH2 (peptide)	
6.28	6.40	Suc-EGF(3F)HE-NH2 (peptide)	
5.59	5.26	Suc-QGF(3F)F(4NO2)E-NH2 (peptide)	
4.65		Suc-AGYFE-NH2	
5.14		Suc-EG-F(3F)-1Nal-Q-NH2 (peptide)	
5.91	5.83	DpSGIFE-NH2 (peptide)	
5.85		Suc-EG-F(3F)-Y(Me)-E-NH2 (peptide)	
4.09		Suc-EAYFE-NH2 (peptide)	
5.00		Suc-QGFFE-NH2	
		Suc-EG-F(4NO2)-1Nal-NH2 (peptide)	pIC50 [2]: 4.85
4.22		Suc-EAFFE-NH2 (peptide)	
5.94	5.83	Suc-EGY1NalE-NH2 (peptide)	
